B1: Lipase, P19515 (parent)
chain: MVLKQRANYLGFLIVFFTAFLVEAVPIKRQSNSTVDSLPPLIPSRTSAPSSSPSTTDPEAPAMSRNGPLPSDVETKYGMALNATSYPDSVVQAMSIDGGIRAATSQEINELTYYTTLSANSYCRTVIPGATWDCIHCDATEDLKIIKTWSTLIYDTNAMVARGDSEKTIYIVFRGSSSIRNWIADLTFVPVSYPPVSGTKVHKGFLDSYGEVQNELVATVLDQFKQYPSYKVAVTGHSLGGATALLCALDLYQREEGLSSSNLFLYTQGQPRVGDPAFANYVVSTGIPYRRTVNERDIVPHLPPAAFGFLHAGEEYWITDNSPETVQVCTSDLETSDCSNSIVPFTSVLDHLSYFGINTGLCT

Variants of B1 are the subject of the series. As to conditions: Rhizomucor miehei; pH 8; Thermal; DSF; sodium phosphate buffer 50 mM; structure 6QPR; whole UniProt chain shown.

From FireProtDB (doi:10.1128/aem.02129-17) come the findings set out here.

For N214R, the Tm amounted to 59.4 °C and the “change of melting temperature, mutant - wild type (higher = more stable)” value (from here on “change of melting temperature, mutant”) is -13.6 °C.
For N214L, in that order: 59.2 °C and -7.5 °C.
For N321L, in that order: 59.3 °C and -13 °C.
For T112W, the Tm was determined as 57.8 °C and the “change of melting temperature, mutant” value was -2.2 °C.
As to T112I, the melting temperature (Tm) was 58.1 °C and the “change of melting temperature, mutant” value is -3 °C.
In the case of T112K, the Tm was 63.2 °C and the “change of melting temperature, mutant” value came to 4.5 °C.
For the variant D320L, the midpoint of thermal melting (Tm) is 58.7 °C and the “change of melting temperature, mutant” value was -3.3 °C.
On to T112K T116I, for which the Tm turned out to be 64 °C and the “change of melting temperature, mutant” value amounted to 5.3 °C.
In the case of S208W, the Tm is 59.5 °C and the “change of melting temperature, mutant” value is 3.9 °C.
For S208V, in that order: 59.1 °C and -4.9 °C.
S208Y: the Tm was 58.9 °C and the “change of melting temperature, mutant” value was -5.5 °C.
For S208F the same measures were 59.2 °C and -6.4 °C.
For E324V, the Tm came to 64.1 °C and the “change of melting temperature, mutant” value was 5.4 °C.
As for E324F, the Tm amounted to 60.3 °C and the “change of melting temperature, mutant” value came to 1.6 °C.
For E324W, in that order: 61.4 °C and 2.7 °C.
For E324R, in that order: 59.9 °C and 1.2 °C.
For E324Y the same measures were 60.8 °C and 2.1 °C.
Take E324P: the Tm was 61.2 °C and the “change of melting temperature, mutant” value is 2.5 °C.
For E324M, in that order: 60 °C and 1.3 °C.
For E324T, in that order: 62.5 °C and 3.8 °C.
In the case of E324L, the Tm stood at 64.1 °C and the “change of melting temperature, mutant” value was 5.4 °C.
For E324I the same measures were 64.4 °C and 5.7 °C.
For Q327I, in that order: 59.5 °C and 2.3 °C.
For T112K E324I the same measures were 66.7 °C and 8 °C.
N358W: the melting temperature (Tm) was 57.2 °C and the “change of melting temperature, mutant” value is -2.7 °C.
For E314I, in that order: 58.7 °C and -2.7 °C.
For E314V, in that order: 58.8 °C and -5.3 °C.
For N280W the same measures were 55.6 °C and -3.1 °C.
For the variant N280L, the Tm amounted to 59.3 °C and the “change of melting temperature, mutant” value is -10 °C.
On to T112K T116I E324I V283C D332C, for which the Tm came to 72.3 °C and the “change of melting temperature, mutant” value came out at 13.6 °C.
For T112K T116I E324I S150C N157C the same measures were 69.3 °C and 10.6 °C.
For T116I, the Tm stood at 61.1 °C and the “change of melting temperature, mutant” value is 2.4 °C.
For D332R the same measures were 58 °C and -2.8 °C.
For D332W the same measures were 58.7 °C and -4.5 °C.
For D332P, in that order: 58.7 °C and -3.8 °C.
As for D332Y, the Tm was 58.7 °C and the “change of melting temperature, mutant” value was -5.4 °C.
For D332L, in that order: 57.8 °C and -2.5 °C.
For D332F the same measures were 58.2 °C and -3 °C.
For T112K T116I E324I, in that order: 68.1 °C and 9.4 °C.
